B1: MMP-2 (protein)
chain: YNFFPRKPKWDKNQITYRIIGYTPDLDPETVDDAFARAFQVWSDVTPLRFSRIHDGEADIMINFGRWEHGDGYPFDGKDGLLAHAFAPGTGVGGDSHFDDDELWTLGEGQVVRVKYGNADGEYCKFPFLFNGKEYNSCTDTGRSDGFLWCSTTYNFEKDGKYGFCPHEALFTMGGNAEGQPCKFPFRFQGTSYDSCTTEGRTDGYRWCGTTEDYDRDKKYGFCPETAMSTVGGNSEGAPCVFPFTFLGNKYESCTSAGRSDGKMWCATTANYDDDRKWGFCPDQGYSLFLVAAHEFGHAMGLEHSQDPGALMAPIYTYTKNFRLSQDDIKGIQELYGASPDIDLGTGPTPTLGPVTPEICKQDIVFDGIAQIRGEIFFFKDRFIWRTVTPRDKPMGPLLVATFWPELPEKIDAVYEAPQEEKAVFFAGNEYWIYSASTLERGYPKPLTSLGLPPDVQRVDAAFNWSKNKKTYIFAGDKFWRYNEVKKKMDPGFPKLIADAWNAIPDNLDAVVDLQGGGHSYFFKGAYYLKLENQSLKSVKFGSIKSDWLGC
B2: tissue plasminogen activator (tPA) (protein)
chain: SYQVICRDEKTQMIYQQHQSWLRPVLRSNRVEYCWCNSGRAQCHSVPVKSCSEPRCFNGGTCQQALYFSDFVCQCPEGFAGKCCEIDTRATCYEDQGISYRGTWSTAESGAECTNWNSSALAQKPYSGRRPDAIRLGLGNHNYCRNPDRDSKPWCYVFKAGKYSSEFCSTPACSEGNSDCYFGNGSAYRGTHSLTESGASCLPWNSMILIGKVYTAQNPSAQALGLGKHNYCRNPDGDAKPWCHVLKNRRLTWEYCDVPSCSTCGLRQYSQPQFRIKGGLFADIASHPWQAAIFAKHRRSPGERFLCGGILISSCWILSAAHCFQERFPPHHLTVILGRTYRVVPGEEEQKFEVEKYIVHKEFDDDTYDNDIALLQLKSDSSRCAQESSVVRTVCLPPADLQLPDWTECELSGYGKHEALSPFYSERLKEAHVRLYPSSRCTSQHLLNRTVTDNMLCAGDTRSGGPQANLHDACQGDSGGPLVCLNDGRMTLVGIISWGLGCGQKDVPGVYTKVTNYLDWIRDNMRP

Assays:
[1] = target: T1, TIAH/LH, MMP2 selective substrate
T1 chain: TIAHLH

[2] = target: T2, YGRAAA (SEQ ID NO: 17), uPA selective substrate
T2 chain: YGRAAA

Row | Protein | cleavage of ACPP substrate by protease [1] | cleavage of ACPP substrate by protease [2]
1 | B1 | selectively cleaved by MMP-2 versus 9 and 14 | 
2 | B2 |  | to a lesser extent by tPA

From patent US20160160263
